Source: US20220306759A1 (CYTOMX THERAPEUTICS, published 2022)

B1: anti-human CD71 TF02.13-3013 activatable antibody (antibody, human IgG1)
heavy: not shown
VL: QGQSGQGNLCTEHSAALDCRSYGGGSSGGSAVGLLAPPGGLSGRSANIGGSDIQMTQSPSSLSASVGDRVTITCSASSSVYYMYWFQQKPGKAPKLWIYSTSNLASGVPSRFSGSGSGTDYTLTISSMQPEDFATYYCQQRRNYPYTFGQGTKLEIK
notes: without spacer 851
B2: anti-human CD71 TF02.13-3007 activatable antibody (antibody, human IgG1, kappa)
heavy: not shown
light: QGQSGQGNLCTEHSAALDCRSYGGGSSGGSAVGLLAPPGGLSGRSDIHGGSDIQMTQSPSSLSASVGDRVTITCSASSSVYYMYWFQQKPGKAPKLWIYSTSNLASGVPSRFSGSGSGTDYTLTISSMQPEDFATYYCQQRRNYPYTFGQGTKLEIKRTVAAPSVFIFPPSDEQLKSGTASVVCLLNNFYPREAKVQWKVDNALQSGNSQESVTEQDSKDSTYSLSSTLTLSKADYEKHKVYACEVTHQGLSSPVTKSFNRGEC
B3: CD71 TF02.13-3001-PEG2-vc-MMAD (antibody, human IgG1, kappa)
heavy: not shown
light: QGQSGQGNLCTEHSAALDCRSYGGGSSGGSAVGLLAPPGGLSGRSDNHGGSDIQMTQSPSSLSASVGDRVTITCSASSSVYYMYWFQQKPGKAPKLWIYSTSNLASGVPSRFSGSGSGTDYTLTISSMQPEDFATYYCQQRRNYPYTFGQGTKLEIKRTVAAPSVFIFPPSDEQLKSGTASVVCLLNNFYPREAKVQWKVDNALQSGNSQESVTEQDSKDSTYSLSSTLTLSKADYEKHKVYACEVTHQGLSSPVTKSFNRGEC
modifications: PEG2-vc-MMAD conjugated to the antibody; chain and residues not stated
B4: CD71 TF02.13-3001-vc-MMAE (antibody, human IgG1, kappa)
heavy: not shown
light: QGQSGQGNLCTEHSAALDCRSYGGGSSGGSAVGLLAPPGGLSGRSDNHGGSDIQMTQSPSSLSASVGDRVTITCSASSSVYYMYWFQQKPGKAPKLWIYSTSNLASGVPSRFSGSGSGTDYTLTISSMQPEDFATYYCQQRRNYPYTFGQGTKLEIKRTVAAPSVFIFPPSDEQLKSGTASVVCLLNNFYPREAKVQWKVDNALQSGNSQESVTEQDSKDSTYSLSSTLTLSKADYEKHKVYACEVTHQGLSSPVTKSFNRGEC
modifications: vc-MMAE conjugated to the antibody; chain and residues not stated
B5: anti-human CD71 TF02.13-3008 activatable antibody (antibody, human IgG1, kappa)
heavy: not shown
light: QGQSGQGNLCTEHSAALDCRSYGGGSSGGSAVGLLAPPGGLSGRSDQHGGSDIQMTQSPSSLSASVGDRVTITCSASSSVYYMYWFQQKPGKAPKLWIYSTSNLASGVPSRFSGSGSGTDYTLTISSMQPEDFATYYCQQRRNYPYTFGQGTKLEIKRTVAAPSVFIFPPSDEQLKSGTASVVCLLNNFYPREAKVQWKVDNALQSGNSQESVTEQDSKDSTYSLSSTLTLSKADYEKHKVYACEVTHQGLSSPVTKSFNRGEC
B6: anti-human CD71 TF02.13-3011 activatable antibody (antibody, human IgG1, kappa)
heavy: not shown
light: QGQSGQGNLCTEHSAALDCRSYGGGSSGGSAVGLLAPPGGLSGRSDNPGGSDIQMTQSPSSLSASVGDRVTITCSASSSVYYMYWFQQKPGKAPKLWIYSTSNLASGVPSRFSGSGSGTDYTLTISSMQPEDFATYYCQQRRNYPYTFGQGTKLEIKRTVAAPSVFIFPPSDEQLKSGTASVVCLLNNFYPREAKVQWKVDNALQSGNSQESVTEQDSKDSTYSLSSTLTLSKADYEKHKVYACEVTHQGLSSPVTKSFNRGEC
B7: anti-human CD71 TF02.13-2007 activatable antibody (antibody, human IgG1, kappa)
heavy: not shown
light: QGQSGQGNLCTEHSAALDCRSYGGGSSGGSISSGLLSGRSDIHGGGSDIQMTQSPSSLSASVGDRVTITCSASSSVYYMYWFQQKPGKAPKLWIYSTSNLASGVPSRFSGSGSGTDYTLTISSMQPEDFATYYCQQRRNYPYTFGQGTKLEIKRTVAAPSVFIFPPSDEQLKSGTASVVCLLNNFYPREAKVQWKVDNALQSGNSQESVTEQDSKDSTYSLSSTLTLSKADYEKHKVYACEVTHQGLSSPVTKSFNRGEC
B8: CD71 TF02.13-2001-spdb-DM4 (antibody, human IgG1, kappa)
heavy: not shown
light: QGQSGQGNLCTEHSAALDCRSYGGGSSGGSISSGLLSGRSDNHGGGSDIQMTQSPSSLSASVGDRVTITCSASSSVYYMYWFQQKPGKAPKLWIYSTSNLASGVPSRFSGSGSGTDYTLTISSMQPEDFATYYCQQRRNYPYTFGQGTKLEIKRTVAAPSVFIFPPSDEQLKSGTASVVCLLNNFYPREAKVQWKVDNALQSGNSQESVTEQDSKDSTYSLSSTLTLSKADYEKHKVYACEVTHQGLSSPVTKSFNRGEC
modifications: spdb-DM4 conjugated to the antibody; chain and residues not stated
B9: anti-human CD71 TF02.13-2012 activatable antibody (antibody, human IgG1, kappa)
heavy: not shown
light: QGQSGQGNLCTEHSAALDCRSYGGGSSGGSISSGLLSGRSANPGGGSDIQMTQSPSSLSASVGDRVTITCSASSSVYYMYWFQQKPGKAPKLWIYSTSNLASGVPSRFSGSGSGTDYTLTISSMQPEDFATYYCQQRRNYPYTFGQGTKLEIKRTVAAPSVFIFPPSDEQLKSGTASVVCLLNNFYPREAKVQWKVDNALQSGNSQESVTEQDSKDSTYSLSSTLTLSKADYEKHKVYACEVTHQGLSSPVTKSFNRGEC
B10: anti-human CD71 TF02.13-2011 activatable antibody (antibody, human IgG1, kappa)
heavy: not shown
light: QGQSGQGNLCTEHSAALDCRSYGGGSSGGSISSGLLSGRSDNPGGGSDIQMTQSPSSLSASVGDRVTITCSASSSVYYMYWFQQKPGKAPKLWIYSTSNLASGVPSRFSGSGSGTDYTLTISSMQPEDFATYYCQQRRNYPYTFGQGTKLEIKRTVAAPSVFIFPPSDEQLKSGTASVVCLLNNFYPREAKVQWKVDNALQSGNSQESVTEQDSKDSTYSLSSTLTLSKADYEKHKVYACEVTHQGLSSPVTKSFNRGEC
B11: anti-human CD71 TF02.13-2008 activatable antibody (antibody, human IgG1, kappa)
heavy: not shown
light: QGQSGQGNLCTEHSAALDCRSYGGGSSGGSISSGLLSGRSDQHGGGSDIQMTQSPSSLSASVGDRVTITCSASSSVYYMYWFQQKPGKAPKLWIYSTSNLASGVPSRFSGSGSGTDYTLTISSMQPEDFATYYCQQRRNYPYTFGQGTKLEIKRTVAAPSVFIFPPSDEQLKSGTASVVCLLNNFYPREAKVQWKVDNALQSGNSQESVTEQDSKDSTYSLSSTLTLSKADYEKHKVYACEVTHQGLSSPVTKSFNRGEC
B12: anti-human CD71 TF02.13-2013 activatable antibody (antibody, human IgG1, kappa)
heavy: not shown
light: QGQSGQGNLCTEHSAALDCRSYGGGSSGGSISSGLLSGRSANIGGGSDIQMTQSPSSLSASVGDRVTITCSASSSVYYMYWFQQKPGKAPKLWIYSTSNLASGVPSRFSGSGSGTDYTLTISSMQPEDFATYYCQQRRNYPYTFGQGTKLEIKRTVAAPSVFIFPPSDEQLKSGTASVVCLLNNFYPREAKVQWKVDNALQSGNSQESVTEQDSKDSTYSLSSTLTLSKADYEKHKVYACEVTHQGLSSPVTKSFNRGEC
B13: CD71 Ab21.12-PEG2-vc-MMAD (antibody, human IgG1, kappa)
heavy: not shown
light: DIQMTQSPSSLSASVGDRVTITCSASSSVYYMYWFQQKPGKAPKLWIYSTSNLASGVPSRFSGSGSGTDYTLTISSMQPEDFATYYCQQRRNYPYTFGQGTKLEIKRTVAAPSVFIFPPSDEQLKSGTASVVCLLNNFYPREAKVQWKVDNALQSGNSQESVTEQDSKDSTYSLSSTLTLSKADYEKHKVYACEVTHQGLSSPVTKSFNRGEC
modifications: PEG2-vc-MMAD conjugated to the antibody; chain and residues not stated
notes: antibody drug conjugate of Ab21.12
B14: CD71 Ab 21.12-spdb-DM4 (antibody, human IgG1, kappa)
heavy: not shown
light: DIQMTQSPSSLSASVGDRVTITCSASSSVYYMYWFQQKPGKAPKLWIYSTSNLASGVPSRFSGSGSGTDYTLTISSMQPEDFATYYCQQRRNYPYTFGQGTKLEIKRTVAAPSVFIFPPSDEQLKSGTASVVCLLNNFYPREAKVQWKVDNALQSGNSQESVTEQDSKDSTYSLSSTLTLSKADYEKHKVYACEVTHQGLSSPVTKSFNRGEC
modifications: spdb-DM4 conjugated to the antibody; chain and residues not stated
notes: as for B13

How the values were obtained:
[1] = molecular target: T1, human CD71 (transferrin receptor protein 1, TfR1) on human cell lines (human, UniProt P02786 1-760); assay: FACS on H292 cells, uncleaved
T1 construct: whole, on cells; also called huCD71
T1 sequence (P02786 whole entry): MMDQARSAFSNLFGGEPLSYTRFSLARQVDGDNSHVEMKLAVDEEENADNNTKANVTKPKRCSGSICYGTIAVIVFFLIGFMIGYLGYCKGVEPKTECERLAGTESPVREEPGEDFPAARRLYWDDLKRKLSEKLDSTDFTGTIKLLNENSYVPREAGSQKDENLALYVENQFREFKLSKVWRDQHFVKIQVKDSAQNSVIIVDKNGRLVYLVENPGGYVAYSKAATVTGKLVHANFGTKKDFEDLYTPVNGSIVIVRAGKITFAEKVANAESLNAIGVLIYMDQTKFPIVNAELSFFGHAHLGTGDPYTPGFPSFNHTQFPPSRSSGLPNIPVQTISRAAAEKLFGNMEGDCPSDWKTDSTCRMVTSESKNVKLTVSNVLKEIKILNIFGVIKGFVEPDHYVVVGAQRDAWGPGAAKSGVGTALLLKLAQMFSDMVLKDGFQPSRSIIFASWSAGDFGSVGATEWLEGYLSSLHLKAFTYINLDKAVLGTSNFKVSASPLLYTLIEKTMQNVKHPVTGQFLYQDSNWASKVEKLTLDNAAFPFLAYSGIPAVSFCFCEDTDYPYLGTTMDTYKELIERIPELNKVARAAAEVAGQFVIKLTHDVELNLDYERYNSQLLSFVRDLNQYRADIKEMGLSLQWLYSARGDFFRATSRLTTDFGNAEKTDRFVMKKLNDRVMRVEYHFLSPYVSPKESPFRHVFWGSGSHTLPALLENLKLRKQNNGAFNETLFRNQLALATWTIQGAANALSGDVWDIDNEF
Procedure: In this study, the binding of the antibodies of the present disclosure to the indicated cell lines were performed using a standard FACS labelling method. […] These activatable antibodies include the light chain of the correspondingly named sequence listed above in Table C. The cells were labeled with the indicated test article at the indicated concentrations and subsequently detected with an Alexa Fluor 647 labeled goat anti-human IgG secondary antibody.

[2] = molecular target: T2, recombinant human CD71 protein (human, UniProt P02786 89-760); assay: ELISA, 1 µg/mL recombinant human CD71, uncleaved
T2 construct: also called recombinant CD71
T2 sequence (P02786 89-760 limits assumed): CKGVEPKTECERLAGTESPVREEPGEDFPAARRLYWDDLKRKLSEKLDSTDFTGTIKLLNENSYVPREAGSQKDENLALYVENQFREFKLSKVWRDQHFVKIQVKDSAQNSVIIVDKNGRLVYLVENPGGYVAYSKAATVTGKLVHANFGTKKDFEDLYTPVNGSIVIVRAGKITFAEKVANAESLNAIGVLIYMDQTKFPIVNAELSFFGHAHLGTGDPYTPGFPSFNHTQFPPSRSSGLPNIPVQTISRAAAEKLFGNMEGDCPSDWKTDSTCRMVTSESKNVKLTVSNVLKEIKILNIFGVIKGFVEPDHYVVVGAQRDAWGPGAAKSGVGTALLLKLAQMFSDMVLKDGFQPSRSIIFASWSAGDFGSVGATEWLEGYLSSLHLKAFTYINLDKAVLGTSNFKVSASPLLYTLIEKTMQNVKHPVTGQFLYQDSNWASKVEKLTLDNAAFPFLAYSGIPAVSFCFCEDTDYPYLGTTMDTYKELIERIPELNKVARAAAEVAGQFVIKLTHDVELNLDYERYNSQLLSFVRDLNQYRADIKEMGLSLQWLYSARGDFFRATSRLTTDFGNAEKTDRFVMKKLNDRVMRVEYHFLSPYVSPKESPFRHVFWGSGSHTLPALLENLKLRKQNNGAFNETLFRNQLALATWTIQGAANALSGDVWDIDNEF
Procedure: The amount of bound antibody was detected by incubation and detection by goat anti-human antibody conjugated to horseradish peroxidase and Ultra TMB (Thermo Fisher Scientific) detection.

[3] = molecular target: T1, human CD71 (transferrin receptor …); assay: FACS on MDA MB 231 cells
Procedure: (§1) In this study, the binding of the antibodies of the present disclosure to the indicated cell lines were performed using a standard FACS labelling method.

[4] = molecular target: T1, human CD71 (transferrin receptor …); assay: FACS on H292 cells
Procedure: as §1

[5] = molecular target: T1, human CD71 (transferrin receptor …); assay: FACS on HCC1806 cells
Procedure: as §1

Binder | Kd [1] | Kd [2] | further results
B1 | 78.3 nM | 4.91 nM | –
B2 | 86.7 nM | 2.21 nM | –
B3 | – | – | Kd [3]: 52.6 nM
B4 | – | – | Bmax (MFI) [4]: 1850 MFI; Kd [4]: 53.8 nM
B5 | 97.8 nM | 2.61 nM | –
B6 | 67.4 nM | 0.778 nM | –
B7 | 70.3 nM | – | –
B8 | – | – | Kd [5]: ~200 nM
B9 | 39.1 nM | 1.64 nM | –
B10 | 57.1 nM | 4.27 nM | –
B11 | 90 nM | 15.1 nM | –
B12 | 70.3 nM | 3.25 nM | –
B13 | – | – | Kd [3]: 1.47 nM
B14 | – | – | Kd [3]: 1.24 nM
